Values quoted from earlier work, collected in patent publication US20050096266A1, “Preparation and method for weight reduction” (priority 2002, published 2005).

Test system: trypsin
Conditions: trypsin secreted into the duodenum by the pancreas; per one weight unit of inhibitor

B1: soybean trypsin inhibitor: Commercial proteinous trypsin inhibitor (Type Il-S, Sigma Chemical Co.) that binds trypsin, forming inactive complexes (protein, UniProt P01070 25-205, looked up)
Trypsin inhibitor A: DFVLDNEGNPLENGGTYYILSDITAFGGIRAAPTGNERCPLTVVQSRNELDKGIGTIISSPYRIRFIAEGHPLSLKFDSFAVIMLCVGIPTEWSVVEDLPEGPAVKIGENKDAMDGWFRLERVSDDEFNNYKLVFCPQQAEDDKCGDIGISIDHDDGTRRLVVSKNKPLVVQFQKLDKESL
**Q.** Which “weight units of trypsin inactivated by one weight unit of the inhibitor” value does the source give for B1 here?
**A.** Its value is 2.5 weight units.
